From paper PMC8395244, “The Oxoglutarate Binding Site and Regulatory Mechanism Are Conserved in Ammonium Transporter Inhibitors GlnKs from Methanococcales” (International Journal of Molecular Sciences, 2021) come the findings set out here.

The data set deals with the molecule itself. Nature of the data set: crystal structure; sitting drop at 18 °C; crystallised with or without 2 mM ATP, 2 mM 2OG and 2 mM MgCl2; solved by molecular replacement with PDB 2J9D.

B1: GlnK1 from Methanocaldococcus jannaschii without a C-terminal tag (MjGlnK1^woT) (natural protein)
chain: MKKVEAIIRPEKLEIVKKALSDAGYVGMTVSEVKGRGVQGGIVERYRGREYIVDLIPKVKIELVVKEEDVDNVIDIICENARTGNPGDGKIFVIPVERVVRVRTKEEGKEAL
notes: GlnK1, PII-family protein, of Methanocaldococcus jannaschii strain DSM 2661; codon-optimised synthetic gene cloned NdeI/XhoI in pET-24b(+) with a stop codon upstream of the XhoI site, so without a tag; Produced and crystallised without a tag; the crystals came from the gel filtration pool that eluted at 66 mL; also called MjGlnK1^woT-Mg-ATP/2OG; MjGlnK1 with ATP, Mg and 2OG; source: E. coli …
Usually stoichiometry N stands for the number of molecules, sites or subunits per partner or assembly. Consider B1, for which the “stoichiometry N” value came out at 3.
